Data as given in article PMC12901311, “HEXIM1 inter-monomer autoinhibition governs 7SK RNA binding specificity and P-TEFb inactivation” (Nature Communications, 2024).
Values joined by “and” are separate entries in the source; they are usually repeats but may differ in a detail not shown here. Identical values can stand only once.

B3: Monomeric Hexim1 BR-L-AR (aa 142-253) (domain or fragment, human)
chain: GGQQQRQLGKKKHRRRPSKKKRHWKPYYKLTWEEKKKFDEKQSLRASRIRAEMFAKGQPVAPYNTTQFLMDDHDQEEPDLKTGLYSKRAAAKSDDTSDDDFMEEGGEEDGGSD
notes: non-native glycine that remains at the N-terminus after TEV protease cleavage; Hexim1, human, residues 142-253: Basic Region, linker with PYNT motif, Acidic Region; 15N-labelled as the reporter in the PRE NMR experiments; unlabelled in NativePAGE and mass photometry; also called Hexim1 central region construct; not shown: His6, N-terminal, cleaved; MBP, N-terminal, cleaved

Tests used:
Hexim1-A12m (human) = biological target: T1, Hexim1-A12m (human) (UniProt O94992); experiment: ITC; conditions: ITC: 20 mM HEPES pH 7.5, 150 mM KCl, 1 mM TCEP, 295 K; NMR: 50 mM Na phosphate pH 6.2, 150 mM KCl, 0.02% NaN3, 5% D2O, 298 K; EMSA: binding buffer (20 mM HEPES …)
T1 sequence: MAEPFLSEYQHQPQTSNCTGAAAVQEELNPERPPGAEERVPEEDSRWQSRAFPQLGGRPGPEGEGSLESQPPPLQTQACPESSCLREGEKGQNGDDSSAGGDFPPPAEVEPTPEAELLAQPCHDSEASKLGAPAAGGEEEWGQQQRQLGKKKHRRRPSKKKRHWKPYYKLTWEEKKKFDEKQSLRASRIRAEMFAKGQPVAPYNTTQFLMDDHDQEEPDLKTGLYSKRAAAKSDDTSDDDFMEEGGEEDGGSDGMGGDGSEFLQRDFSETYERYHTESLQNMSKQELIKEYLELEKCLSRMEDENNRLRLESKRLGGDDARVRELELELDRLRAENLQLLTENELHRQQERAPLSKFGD

Hexim1-A3m (human) = biological target: T2, Hexim1-A3m (human) (UniProt O94992); experiment: ITC; conditions: N=0.34; ITC: 20 mM HEPES pH 7.5, 150 mM KCl, 1 mM TCEP, 295 K; NMR: 50 mM Na phosphate pH 6.2, 150 mM KCl, 0.02% NaN3, 5% D2O, 298 K; EMSA: binding buffer (20 mM HEPES …)
T2 sequence: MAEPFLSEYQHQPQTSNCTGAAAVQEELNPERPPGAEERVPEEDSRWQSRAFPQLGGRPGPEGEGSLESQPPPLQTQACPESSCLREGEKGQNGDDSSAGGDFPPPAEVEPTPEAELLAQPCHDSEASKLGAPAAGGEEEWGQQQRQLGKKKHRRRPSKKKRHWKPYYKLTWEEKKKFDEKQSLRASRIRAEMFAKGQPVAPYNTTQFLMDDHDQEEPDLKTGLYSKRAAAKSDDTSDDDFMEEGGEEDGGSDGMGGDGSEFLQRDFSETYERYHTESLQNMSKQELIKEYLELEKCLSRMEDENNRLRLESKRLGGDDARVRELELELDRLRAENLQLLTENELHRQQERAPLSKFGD

Hexim1 full-length [1] = biological target: T3, Hexim1 full-length (human, UniProt O94992 1-359); experiment: ITC; conditions: N=1.40; protein in syringe (inferred from N); ITC: 20 mM HEPES pH 7.5, 150 mM KCl, 1 mM TCEP, 295 K; NMR: 50 mM Na phosphate pH 6.2, 150 mM KCl, 0.02% NaN3, 5% D2O, 298 K; EMSA: binding buffer (20 mM HEPES …)
Hexim1 full-length [2] = biological target: T3, Hexim1 full-length; experiment: ITC; N=0.49; ITC: 20 mM HEPES pH 7.5, 150 mM KCl, 1 mM TCEP, 295 K; NMR: 50 mM Na phosphate pH 6.2, 150 mM KCl, 0.02% NaN3, 5% D2O, 298 K; EMSA: binding buffer (20 mM HEPES); conditions: protein: recombinant; tags: MBP-His6 removed by TEV; non-native N-terminal G remains; chain copies: 2; hairpin
[3] = biological target: the molecule itself; experiment: mass photometry; Refeyn TwoMP; freshly purified proteins alone or mixed as complexes, drop-diluted into phosphate-buffered saline pH 7.4 to 40 nM final total protein
Hexim1 full-length [4] = biological target: T3, Hexim1 full-length; experiment: ITC; N=0.76; ITC: 20 mM HEPES pH 7.5, 150 mM KCl, 1 mM TCEP, 295 K; NMR: 50 mM Na phosphate pH 6.2, 150 mM KCl, 0.02% NaN3, 5% D2O, 298 K; EMSA: binding buffer (20 mM HEPES); conditions: protein: recombinant; tags: MBP-His6 removed by TEV; non-native N-terminal G remains; chain copies: 2; hairpin with U40U41 and U63 bulges
Hexim1 NBLA (N-BR-L-AR) = Hexim1 NBLA (N-BR-L-AR) (human, UniProt O94992 1-253); experiment: ITC; N=0.81; ITC: 20 mM HEPES pH 7.5, 150 mM KCl, 1 mM TCEP, 295 K; NMR: 50 mM Na phosphate pH 6.2, 150 mM KCl, 0.02% NaN3, 5% D2O, 298 K; EMSA: binding buffer (20 mM HEPES); conditions: protein: recombinant; hairpin with U40U41 and U63 bulges
Hexim1 full-length [5] = biological target: T3, Hexim1 full-length; experiment: ITC; N=0.47; ITC: 20 mM HEPES pH 7.5, 150 mM KCl, 1 mM TCEP, 295 K; NMR: 50 mM Na phosphate pH 6.2, 150 mM KCl, 0.02% NaN3, 5% D2O, 298 K; EMSA: binding buffer (20 mM HEPES); conditions: protein: recombinant; tags: MBP-His6 removed by TEV; non-native N-terminal G remains; chain copies: 2; hairpin
Hexim1 BRARM1 = biological target: T4, Hexim1 BRARM1 (human, UniProt O94992 141-159); experiment: NMR; Site2 shifted, not Site4; ITC: 20 mM HEPES pH 7.5, 150 mM KCl, 1 mM TCEP, 295 K; NMR: 50 mM Na phosphate pH 6.2, 150 mM KCl, 0.02% NaN3, 5% D2O, 298 K; EMSA: binding buffer (20 mM HEPES); conditions: protein: recombinant; tags: GB1-His6 removed by TEV; non-native N-terminal G; hairpin
T4 chain: WGQQQRQLGKKKHRRRPSK

[6] = biological target: the molecule itself; experiment: paramagnetic relaxation enhancement (PRE) NMR; total interaction experiment: 15N-labelled and MTSL-tagged BR-L-AR alone, captures both intra- and inter-monomer contacts; 15N-1H HSQC, 290.15 K, 600 MHz; 50 mM sodium phosphate pH 6.2, 150 mM KCl
[7] = biological target: B3; experiment: paramagnetic relaxation enhancement (PRE) NMR; inter-only experiment: 1:1 mixture of 15N-labelled untagged BR-L-AR (reporter) with 14N-labelled MTSL-tagged BR-L-AR (broadener); 15N-1H HSQC, 290.15 K, 600 MHz; 50 mM sodium phosphate pH 6.2, 150 mM KCl; conditions: both partners purified
Hexim1 BR-L-AR = Hexim1 BR-L-AR (human, UniProt O94992 142-253); experiment: NMR; ITC: 20 mM HEPES pH 7.5, 150 mM KCl, 1 mM TCEP, 295 K; NMR: 50 mM Na phosphate pH 6.2, 150 mM KCl, 0.02% NaN3, 5% D2O, 298 K; EMSA: binding buffer (20 mM HEPES); conditions: protein: recombinant; tags: MBP-His6 removed by TEV; non-native N-terminal G; hairpin

**Q.** What does the source list for “GGAUGUGAGGGCGAUCUGGCUUCGGCCUUCCUCCCUCACCGCUCCA [7SK SL1-p]”?
**A.** binding signal (fold tighter than wild-type Hexim1) (Hexim1-A12m (human)): 6; Kd (Hexim1-A3m (human)): 276 nM

**Q.** For 7SK SL1-d(api), which Kd (Hexim1 full-length [1]) is on record?
**A.** 96 nM

**Q.** For GGAUGUGAGGGCGAUCUGGCUUCGGCCUUCCUCCCUCACCGCUCCA (structured_RNA) [7SK SL1-p], which Kd (Hexim1 full-length [2]) is on record?
**A.** 2210 ± 197 nM

B1: Hexim1 L-AR-CC dimeric protein (domain or fragment, human, UniProt O94992 171-359, looked up)
chain: TWEEKKKFDEKQSLRASRIRAEMFAKGQPVAPYNTTQFLMDDHDQEEPDLKTGLYSKRAAAKSDDTSDDDFMEEGGEEDGGSDGMGGDGSEFLQRDFSETYERYHTESLQNMSKQELIKEYLELEKCLSRMEDENNRLRLESKRLGGDDARVRELELELDRLRAENLQLLTENELHRQQERAPLSKFGD
notes: Hexim1, human; linker (L), Acidic Region (AR) and coiled-coil domain (CC, 254-359); source: E. coli BL21-GOLD(DE3), purified
**Q.** How did the “stoichiometry N” value [3] turn out when B1 was run?
**A.** 2

**Q.** GGCCAUUGAUCGCCUUCGGGCUGAUCUGGCC (structured_RNA) [7SK SL1-dI] was tested. Which Kd (Hexim1 full-length [4]) did it give?
**A.** 780 ± 25 nM

**Q.** And the Kd (Hexim1 NBLA (N-BR-L-AR))?
**A.** 83 ± 28 nM

**Q.** With GGCUGUCACCUUCGGGCUAGGCGGCC (structured_RNA) [7SK SL1-dII] as the molecule, how does the Kd (Hexim1 full-length [5]) read?
**A.** 1220 ± 129 nM

**Q.** Does GGCUGCGACAUCUGUCACCUUCGGGCUAGGCGGGUGUCCCC (structured_RNA) [7SK SL1-dIIm] bind (Hexim1 BRARM1)?
**A.** binds

B2: Full-length human Hexim1 protein (aa 1-359) (natural protein)
chain: GMAEPFLSEYQHQPQTSNCTGAAAVQEELNPERPPGAEERVPEEDSRWQSRAFPQLGGRPGPEGEGSLESQPPPLQTQACPESSCLREGEKGQNGDDSSAGGDFPPPAEVEPTPEAELLAQPCHDSEASKLGAPAAGGEEEWGQQQRQLGKKKHRRRPSKKKRHWKPYYKLTWEEKKKFDEKQSLRASRIRAEMFAKGQPVAPYNTTQFLMDDHDQEEPDLKTGLYSKRAAAKSDDTSDDDFMEEGGEEDGGSDGMGGDGSEFLQRDFSETYERYHTESLQNMSKQELIKEYLELEKCLSRMEDENNRLRLESKRLGGDDARVRELELELDRLRAENLQLLTENELHRQQERAPLSKFGD
notes: non-native glycine that remains at the N-terminus after TEV protease cleavage; Hexim1, human, aa 1-359; also called Hexim1 dimer; full-length Hexim1; not shown: His6, N-terminal, cleaved; MBP, N-terminal, cleaved
**Q.** For B2, which “stoichiometry N” value [3] is on record?
**A.** 2

**Q.** How did the “stoichiometry N” value [3] turn out when B3 was run?
**A.** 3 and 4

B4: Hexim1 BR-L-AR(A201C^MTSL) (domain or fragment, human)
chain: GGQQQRQLGKKKHRRRPSKKKRHWKPYYKLTWEEKKKFDEKQSLRASRIRAEMFAKGQPVCPYNTTQFLMDDHDQEEPDLKTGLYSKRAAAKSDDTSDDDFMEEGGEEDGGSD
modifications: MTSL nitroxide spin label on C201
notes: non-native glycine that remains at the N-terminus of BR-L-AR after TEV protease cleavage; Hexim1, human, residues 142-253 (BR-L-AR) with A201C; 15N-labelled; not shown: His6, N-terminal, cleaved; MBP, N-terminal, cleaved
**Q.** Does B4 bind [6]?
**A.** binds

B5: Hexim1 BR-L-AR(S183C^MTSL) (domain or fragment, human)
chain: GGQQQRQLGKKKHRRRPSKKKRHWKPYYKLTWEEKKKFDEKQCLRASRIRAEMFAKGQPVAPYNTTQFLMDDHDQEEPDLKTGLYSKRAAAKSDDTSDDDFMEEGGEEDGGSD
modifications: MTSL nitroxide spin label on C183
notes: non-native glycine that remains at the N-terminus of BR-L-AR after TEV protease cleavage; Hexim1, human, residues 142-253 (BR-L-AR) with S183C; 15N-labelled; not shown: His6, N-terminal, cleaved; MBP, N-terminal, cleaved
**Q.** Does B5 bind [6]?
**A.** binds

B6: Hexim1 BR-L-AR(S226C^MTSL) (domain or fragment, human)
chain: GGQQQRQLGKKKHRRRPSKKKRHWKPYYKLTWEEKKKFDEKQSLRASRIRAEMFAKGQPVAPYNTTQFLMDDHDQEEPDLKTGLYCKRAAAKSDDTSDDDFMEEGGEEDGGSD
modifications: MTSL nitroxide spin label on C226
notes: non-native glycine that remains at the N-terminus of BR-L-AR after TEV protease cleavage; Hexim1, human, residues 142-253 (BR-L-AR) with S226C; not shown: His6, N-terminal, cleaved; MBP, N-terminal, cleaved
**Q.** What does the source list for B6?
**A.** binding result [6]: binds; binding result [7]: binds

B7: Hexim1 BR-L-AR(S237C^MTSL) (domain or fragment, human)
chain: GGQQQRQLGKKKHRRRPSKKKRHWKPYYKLTWEEKKKFDEKQSLRASRIRAEMFAKGQPVAPYNTTQFLMDDHDQEEPDLKTGLYSKRAAAKSDDTCDDDFMEEGGEEDGGSD
modifications: MTSL nitroxide spin label on C237
notes: non-native glycine that remains at the N-terminus of BR-L-AR after TEV protease cleavage; Hexim1, human, residues 142-253 (BR-L-AR) with S237C; not shown: His6, N-terminal, cleaved; MBP, N-terminal, cleaved
**Q.** Does B7 bind [7]?
**A.** binds

B8: Hexim1 BR-L-AR(S233C^MTSL) (domain or fragment, human)
chain: GGQQQRQLGKKKHRRRPSKKKRHWKPYYKLTWEEKKKFDEKQSLRASRIRAEMFAKGQPVAPYNTTQFLMDDHDQEEPDLKTGLYSKRAAAKCDDTSDDDFMEEGGEEDGGSD
modifications: MTSL nitroxide spin label on C233
notes: non-native glycine that remains at the N-terminus of BR-L-AR after TEV protease cleavage; Hexim1, human, residues 142-253 (BR-L-AR) with S233C; 14N in the inter-only experiment; not shown: His6, N-terminal, cleaved; MBP, N-terminal, cleaved
**Q.** Does B8 bind [7]?
**A.** binds

**Q.** Does GGCGAUCUGGCUGCGACAUCUGUCACCCCAUUGAUCGCC (structured_RNA) [7SK SL1alt (circular), loop version not stated] bind (Hexim1 BR-L-AR)?
**A.** binds
